We go through 25 molecules from patent US6709814B1, “Peptides causing formation of compact structures” (Rigel Pharmaceuticals, Inc., priority 1998, dated 2004).

Bridge positions count the residues as written; N and C are the ends. Square brackets hold non-standard residues; d marks the D form. Ends that are not written are not given here. Peptide text beside a SMILES is read from it. pGlu = O=C1CC[C@@H](C(=O)O)N1

The conditions of data set [1]: cited from earlier work; for dimer formation of HA fragments: compared with HA; for concentration at which dimers form / do not dissociate: aqueous solution, physiological conditions.
Data set [2] in a line: Observation of peptide dimers by electrospray MS / LC-MS under harsh conditions. The class given is binding. The following applies: electrospray ion trap, infusion at pH 6.4 or C18 elution at ~pH 2.5 in acetonitrile. An excerpt: The peptide also forms dimers (also detected by mass spectrometry) when eluted off a C18 reversed phase column at pH ˜2.5 in ca. 25% acetonitrile (FIG. 3B).
LC/MS examination of the crude synthesis products from an all-single coupled fmoc synthesis of EFLIVKS-amide, for shorter sequences which can dimerize after electrospray ionization is shown in FIG. 4. HPLC elution was with a gradient of 99.9% water-0.1% TFA to 99.9% acetonitrile-0.1% TFA. Dimers of the following truncated sequences were detected by mass spectrometry with the percent acetonitrile in parentheses, all at ˜pH 2.5: peak 1, […] (23.5%), monomer m/z=705.3, dimer m/z=1409.3; peak 4: EFLIVKS-amide (25%), monomer m/z=834.4, dimer m/z=1667.3; and peak 5, EFLIVK-amide (32%), monomer m/z=747.4, dimer m/z=1493.1.

Data set [3] deals with T1, porcine pancreatic elastase (Sus scrofa, UniProt P00772).
T1 construct: purchased Sigma Chemical Co., St. Louis, Mo
The following applies: Leatherbarrow and Salacinski; read-out: reported apparent inhibition constant (Ki) for elastase; cited from earlier work.

The target in data set [4] is T1, porcine pancreatic elastase. Briefly: Inhibition of porcine pancreatic elastase (succinyl-ala-ala-ala-p-nitroanilide cleavage). The class given is biochemical. The following applies: pH 7.88, 25 C.
Experimental: Inhibition by different peptide constructs was followed by preincubation of 10 μM peptide with elastase for 1-1.5 min. followed by addition of the substrate. Percent inhibition was calculated as [1−{assay slope(peptide+elastase)/assay slope(elastase alone)}]×100%.
The nature of data set [5]: Solubility of peptide constructs. Type of data set: physicochemical.
Data set [6] addresses porcine pancreatic elastase (porcine, UniProt P00772 27-266). Nature of the data set: cell-based or functional assay.
Data set [7] concerns the molecule itself. Briefly: self-dimerization, electrospray mass spectrometry, relative dimer ion current against peptide concentration, pH 5.0.
Data set [8] concerns the molecule itself. Nature of the data set: self-dimerization, electrospray mass spectrometry, alanine scan.
Data set [9] concerns the molecule itself. Briefly: LC/MS, C18 reversed phase elution at ~pH 2.5, electrospray.

T1 sequence (P00772 27-266): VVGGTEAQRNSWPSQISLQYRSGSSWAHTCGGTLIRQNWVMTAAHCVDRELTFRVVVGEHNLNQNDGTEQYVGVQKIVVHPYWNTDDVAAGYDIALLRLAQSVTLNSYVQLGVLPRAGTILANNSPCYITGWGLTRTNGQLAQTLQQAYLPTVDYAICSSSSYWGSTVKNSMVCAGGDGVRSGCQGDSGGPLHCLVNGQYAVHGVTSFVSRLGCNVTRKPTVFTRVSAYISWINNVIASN
porcine pancreatic elastase (porcine, UniProt P00772 27-266), sequence (P00772 27-266 limits assumed): as the sequence (P00772 27-266) above

Consider pSKVILF, for which the “dimer formation of HA fragments” value in [1] is recorded as “dimerized more efficiently”.
As to EFLIVK-amide (EFLIVK-NH2), in data set [2], the “dimer detected by mass spectrometry” value is listed as “Dimers”.
Take “VSIKFEL [peptide designed to form a short beta sheet]”: in data set [2], the “dimer detected by mass spectrometry” value is “dimeric form of the peptide”.
For the molecule [pGlu]PPGGSK, the “dimer formation of HA fragments” value in [1] is recorded as “did not lead to dimer formation”.
On to LIVKS-amide, for which the “dimer detected by mass spectrometry” value in data set [2] is “Dimers”.
In the case of SKVILFE, the “concentration at which dimers form / do not dissociate” value in [1] was ~10^−13 M.
Turning to `CC[C@H](C)[C@@H]1NC(=O)[C@H](CCCNC(=N)N)NC(=O)[C@H](Cc2ccc(O)cc2)NC(=O)[C@H](CCC(=O)O)NC(=O)[C@H](CCSC)NC(=O)[C@H]([C@@H](C)O)NC(=O)[C@H](C(C)C)NC(=O)[C@H]([C@@H](C)CC)NC(=O)[C@H]([C@@H](C)O)NC(=O)CNC(=O)[C@@H](N)CSSC[C@@H](C(=O)O)NC(=O)[C@H](Cc2ccccc2)NC(=O)[C@H](CO)NC(=O)[C@H](CCCNC(=N)N)NC(=O)[C@H]([C@@H](C)O)NC(=O)[C@H](CCCNC(=N)N)NC(=O)[C@H](CC(=O)O)NC1=O` [cyclic[CGTIVTMEYRIDRTRSFC]] (H-CGTIVTMEYRIDRTRSFC-OH; disulfide 1-18), the Ki in data set [3] is 0.00039 µM. In addition, the “inhibition of porcine pancreatic elastase” value in data set [4] (500 nM peptide, 100 μM succ-ala-ala-ala-p-nitroanilide) worked out at 6.2%.
On to pVILF, for which, in [1], the “dimer formation of HA fragments” value is “did not lead to dimer formation”.
Take `O=S(=O)(F)Cc1ccccc1` [PMSF]: the “inhibition of porcine pancreatic elastase” value in data set [4] (2 mM PMSF) is listed as 100%.
As for [pGlu]PPGGSKVILF [HA], the “concentration at which dimers form / do not dissociate” value in [1] is given as ≤ 10^−13 M.
As to EFLIVKS, the “dimer detected by mass spectrometry” value in data set [2] (listed as EFLIVKS-amide) is on record as “self-associate to form dimers”.
Regarding “EFLIVKSSTKSIPPQSEFLIVKS [EFLIVKS-STKSIPPQS-EFLIVKS]”, the solubility entry in data set [5] is reported as “quite soluble at low pH”.
With CGTIVTMEYRIDRTRSFC (disulfide 1-18) [cyclic[CGTIVTMEYRIDRTRSFC]], in data set [6], the “inhibition (% inhibition of elastase cleavage of succ-ala-ala-ala-p-nitroanilide)” value was 6.2%.

B1: VSIKFEL (peptide)
peptide: VSIKFEL
notes: Peptide designed to form a short beta sheet
As usually defined, the Kd is a measure of binding affinity in units of concentration. Low readings indicate a tighter complex, high ones a looser complex. Regarding B1, the Kd in data set [7] amounted to 13 µM.
For the molecule EFAIVKS (Alanine scan analog of EFLIVKS (L3A)), the “fold weakening of self-binding against EFLIVKS” value (“fold weakening of self-binding” below) in [8] stood at 9.7 fold. The Kd in [7] was determined as 76 µM.
For the molecule EALIVKS (Alanine scan analog of EFLIVKS (F2A)), the “fold weakening of self-binding” value in data set [8] amounted to 5.4 fold. In addition, the Kd in data set [7] stood at 42 µM.
On to EFLIVAS (Alanine scan analog of EFLIVKS (K6A)), for which, in data set [8], the “fold weakening of self-binding” value is 6 fold. In data set [7], this molecule yielded an equilibrium dissociation constant (Kd) greater than 50 µM.
With EFLIVKS-NH2 (also called EFLIVKS-amide; dimerizer), the dissociation constant (Kd) in data set [7] worked out at 7.8 µM.

B2: EFLIVK-amide (peptide)
peptide: EFLIVK-NH2
notes: Truncated by-product of the EFLIVKS-amide synthesis; also called peak 5
For the molecule B2, the binding result in data set [9] is “binds”.

B3: SKVILFE (peptide)
peptide: SKVILFE-NH2
notes: also called SKVILFE-amide; test peptide SKVILFE
B3: the dissociation constant Kd in data set [7] was 12 µM.

B4: KFLIVKS (peptide)
peptide: KFLIVKS
notes: Analog of EFLIVKS with the N-terminal glu replaced by lys
In [7], B4 came in with a Kd of 6.8 µM.
On to EFLIAKS (Alanine scan analog of EFLIVKS (V5A)), for which, in [8], the “fold weakening of self-binding” value came to 10 fold. Moreover, binding in [7] was put at a Kd of 82 µM.
Molecule EFLIVKA (Alanine scan analog of EFLIVKS (S7A)) returned a Kd in data set [7] of 9.9 µM.
On the same count and under the same terms, to AFLIVKS (Alanine scan analog of EFLIVKS (E1A)) belongs 12 µM.
For the molecule EFLAVKS (Alanine scan analog of EFLIVKS (I4A)), the “fold weakening of self-binding” value in data set [8] amounted to 5.4 fold. In data set [7], the affinity, expressed as Kd, was 42 µM.
